Columns and labels:
[1] = target: T1, cynomolgus IL-17F (cynomolgus, UniProt G7P4V0 31-163); assay: SPR (Biacore T200), TrYbe 18B captured; column head prints KD(nM), but the KD(M) column shows the value is in pM
T1 construct: also called cyno IL-17F
T1 sequence: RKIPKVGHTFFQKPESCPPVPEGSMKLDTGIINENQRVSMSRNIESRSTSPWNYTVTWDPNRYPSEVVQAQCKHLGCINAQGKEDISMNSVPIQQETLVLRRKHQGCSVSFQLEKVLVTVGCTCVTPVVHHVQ
Experimental: (§1) BIA (Biamolecular Interaction Analysis) was performed using a Biacore T200 (GE Healthcare). Affinipure F(ab′)2 Fragment goat anti-human IgG, F(ab′)2 fragment specific (Jackson ImmunoResearch) was immobilised on a CM5 Sensor Chip via amine coupling chemistry to a capture level of ˜5000 response units (RUs). HBS-EP buffer (10 mM HEPES pH 7.4, 0.15 M NaCl, 3 mM EDTA, 0.05% Surfactant P20, GE Healthcare) was used as the running buffer with a flow rate of 10 μL/min. […] The surface was regenerated by 2×10 μL injection of 50 mM HCl, interspersed by a 5 μL injection of 5 mM NaOH at a flowrate of 10 L/min. Background subtraction binding curves were analysed using the T200evaluation software (version 1.0) following standard procedures. Kinetic parameters were determined from the fitting algorithm.

[2] = target: T2, cynomolgus TNF-alpha (cynomolgus, UniProt P79337 77-233); assay: as above
T2 construct: also called cyno TNF; cTNF
Experimental: as §1

[3] = target: T3, cynomolgus serum albumin (cynomolgus, UniProt A2V9Z4 25-608); assay: as above
T3 construct: also called Cynomolgus Albumin; CSA
Experimental: as §1

[4] = target: T2, cynomolgus TNF-alpha; assay: SPR (Biacore T200), TrYbe 18B captured by anti-human F(ab')2, cynomolgus TNF titrated 5 nM to 0.15625 nM
Experimental: as §1

[5] = target: T4, human IL-17A (human, UniProt Q16552 24-155); assay: SPR (Biacore T200), TrYbe 18B captured by anti-human F(ab')2, human IL-17A titrated 5 nM to 0.15625 nM; footnote: dissociation limited due to limit of the instrument
T4 construct: also called hIL-17A
Experimental: as §1, with “10 μL/min.” for “10 L/min.”

[6] = target: T4, human IL-17A; assay: SPR (Biacore T200), TrYbe 18B captured by anti-human F(ab')2, human IL-17A titrated 5 nM to 0.15625 nM
Experimental: as §1, with “10 μL/min.” for “10 L/min.”

[7] = target: T5, cynomolgus IL-17A (cynomolgus, UniProt A0A2K5TTB0 24-155); assay: SPR (Biacore T200), TrYbe 18B captured by anti-human F(ab')2, cynomolgus IL-17A titrated 10 nM to 0.3125 nM
T5 construct: also called cIL-17A; cynoIL-17A
Experimental: as §1

[8] = target: T3, cynomolgus serum albumin; assay: SPR (Biacore T200), TrYbe 18B captured by anti-human F(ab')2, cynomolgus albumin titrated 100 nM to 3.125 nM
Experimental: as §1

[9] = target: T6, murine TNF-alpha (mouse, UniProt P06804 80-235); assay: L929 cell killing assay with murine TNF-α (N=3); told in words
T6 construct: also called mouse TNF; Murine TNF-α
T6 sequence (looked up): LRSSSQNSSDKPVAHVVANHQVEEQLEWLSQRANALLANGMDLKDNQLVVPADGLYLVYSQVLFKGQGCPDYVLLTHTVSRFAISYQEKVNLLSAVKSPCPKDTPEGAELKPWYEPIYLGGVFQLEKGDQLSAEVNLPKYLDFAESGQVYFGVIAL

[10] = target: T7, human IL-17F (human, UniProt Q96PD4 31-163); assay: SPR (Biacore T200), TrYbe 18B captured by anti-human F(ab')2, human IL-17F titrated 10 nM to 0.3125 nM
T7 sequence (looked up): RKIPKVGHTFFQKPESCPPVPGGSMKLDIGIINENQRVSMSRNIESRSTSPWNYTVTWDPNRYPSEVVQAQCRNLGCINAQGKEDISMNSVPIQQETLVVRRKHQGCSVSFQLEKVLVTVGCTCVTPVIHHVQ
Experimental: as §1, with “10 μL/min.” for “10 L/min.”

[11] = target: T2, cynomolgus TNF-alpha; assay: cell-based or functional assay
[12] = target: T8, human TNF-alpha (human, UniProt P01375 77-233); assay: cell-based or functional assay
[13] = target: T8, human TNF-alpha; assay: SPR (Biacore T200), TrYbe 18B captured by anti-human F(ab')2, human TNF titrated 5 nM to 0.15625 nM
Experimental: as §1, with “10 μL/min.” for “10 L/min.”

[14] = target: T5, cynomolgus IL-17A; assay: SPR (Biacore T200), TrYbe 18B captured by anti-human F(ab')2, cynomolgus IL-17A titrated 10 nM to 0.3125 nM; footnote: dissociation limited due to limit of the instrument
Experimental: as §1

[15] = target: T1, cynomolgus IL-17F; assay: SPR (Biacore T200), TrYbe 18B captured by anti-human F(ab')2, cynomolgus IL-17F titrated 40 nM to 1.25 nM
Experimental: as §1

[16] = target: T9, human serum albumin (human, UniProt P02768 25-609); assay: SPR (Biacore T200), TrYbe 18B captured by anti-human F(ab')2, HSA titrated 100 nM to 3.125 nM
T9 construct: also called HSA; Human Albumin
Experimental: as §1, with “10 μL/min.” for “10 L/min.”

[17] = target: T4, human IL-17A; assay: SPR (Biacore T200), TrYbe 18B captured by anti-human F(ab')2, human IL-17A titrated 5 nM to 0.15625 nM; kd at the instrument's limit
Experimental: as §1, with “10 μL/min.” for “10 L/min.”

[18] = target: T5, cynomolgus IL-17A; assay: SPR (Biacore T200), TrYbe 18B captured; column head prints KD(nM), but the KD(M) column shows the value is in pM; kd at the instrument's limit
Experimental: as §1

[19] = target: T5, cynomolgus IL-17A; assay: SPR (Biacore T200), TrYbe 18B captured by anti-human F(ab')2, cynomolgus IL-17A titrated 10 nM to 0.3125 nM; kd at the instrument's limit
Experimental: as §1

B1: Fab496.g3-(HC)dsscFv(HL)2109 / Fab496.g3-(LC)dsscFv(HL)645 (TrYbe 18B) (other)
heavy: EVQLVESGGGLVQPGGSLRLSCAASGFTFSDYNMAWVRQAPGKGLEWVATITYEGRNTYYRDSVKGRFTISRDNAKNSLYLQMNSLRAEDTAVYYCASPPQYYEGSIYRLWFAHWGQGTLVTVSSASTKGPSVFPLAPSSKSTSGGTAALGCLVKDYFPEPVTVSWNSGALTSGVHTFPAVLQSSGLYSLSSVVTVPSSSLGTQTYICNVNHKPSNTKVDKKVEPKSCSGGGGSGGGGSEVQLVESGGGLVKPGGSLRLSCAASGYTFTDNYIHWVRQAPGKCLEWIGYINPSSAYAHYNEKFKTRFTISVDKAKNSAYLQMNSLRAEDTAVYYCTRRYYSAMPFAYWGQGTLVTVSSGGGGSGGGGSGGGGSGGGGSDIQMTQSPSSLSASVGDRVTITCRASEDIYSGLAWYQQKPGKVPKLLIYDSSTLHTGVPSRFSGTGSGTDYTLTISSLQPEDVATYFCQQNYDFPLTFGCGTKLEIKRT
light: AIQLTQSPSSLSASVGDRVTITCRADESVRTLMHWYQQKPGKAPKLLIYLVSNSEIGVPDRFSGSGSGTDFRLTISSLQPEDFATYYCQQTWSDPWTFGQGTKVEIKRTVAAPSVFIFPPSDEQLKSGTASVVCLLNNFYPREAKVQWKVDNALQSGNSQESVTEQDSKDSTYSLSSTLTLSKADYEKHKVYACEVTHQGLSSPVTKSFNRGECSGGGGSGGGGSEVQLLESGGGLVQPGGSLRLSCAVSGIDLSNYAINWVRQAPGKCLEWIGIIWASGTTFYATWAKGRFTISRDNSKNTVYLQMNSLRAEDTAVYYCARTVPGYSTAPYFDLWGQGTLVTVSSGGGGSGGGGSGGGGSGGGGSDIQMTQSPSSVSASVGDRVTITCQSSPSVWSNFLSWYQQKPGKAPKLLIYEASKLTSGVPSRFSGSGSGTDFTLTISSLQPEDFATYYCGGGYSSISDTTFGCGTKVEIKRT
notes: Tri-specific Fab-2xdsscFv (TrYbe) with no Fc; Stably expressed in CHO; also called Fab496.g3-(HC)dsHLscFv2109 (LC)dsHLscFv645
[1]
  Kd: 0.288 nM
[2]
  Kd: 7.16 pM
[3]
  Kd: 2.72 nM
[4]
  Kd: 7.16 pM
  koff: 6.38e-05 s⁻¹
  kon: 8.9e+06 M⁻¹ s⁻¹
[5]
  koff: ≤ 1e-05 s⁻¹
[6]
  kon: 5.52e+06 M⁻¹ s⁻¹
[7]
  kon: 1.67e+06 M⁻¹ s⁻¹
[8]
  Kd: 2.72 nM
  koff: 0.000159 s⁻¹
  kon: 58300 M⁻¹ s⁻¹
[9]
  binding result: no binding
[10]
  Kd: 7.51 pM
  koff: 3.8e-05 s⁻¹
  kon: 5.06e+06 M⁻¹ s⁻¹
[11]
  Mean EC50, L929 cell survival (CellTiter-Glo) with Actinomycin D and cynomolgus TNF-α: 4.97 pM
[12]
  Mean EC50, L929 cell survival (CellTiter-Glo) with Actinomycin D and human TNF-α: 5.87 pM
[13]
  Kd: 0.0116 nM
  koff: 6.43e-05 s⁻¹
  kon: 5.54e+06 M⁻¹ s⁻¹
[14]
  koff: ≤ 1e-05 s⁻¹
[15]
  Kd: 0.288 nM
  koff: 0.000167 s⁻¹
  kon: 582000 M⁻¹ s⁻¹
[16]
  Kd: 1.74 nM
  koff: 0.000135 s⁻¹
  kon: 77500 M⁻¹ s⁻¹
[17]
  Kd: ≤ 1.81 pM
[18]
  Kd: 5.99 pM
[19]
  Kd: ≤ 5.99 pM
